Several values for one entry are separate records, joined by “and”; a condition that tells them apart may be missing. Equal entries are not always repeated. Where only a bound is given, the exact number is not on record here.

We go through three molecules from patent US20110044995A1 (KUMAMOTO UNIVERSITY, published 2011).

For experiment [1], the target named is envelope of HIV-1 strain JR-FL (JRFLwt), on virus (HIV-1 strain JR-FL). Briefly: cell-based or functional assay. Also on record: unit not given beside the values.
In experiment [2] the target is envelope of HIV-1 clinically isolated strain MOKW. Put plainly: cell-based or functional assay. Also on record: unit not given beside the values.
Experiment [3] addresses envelope of HIV-1 clinically isolated strain MTA. Put plainly: cell-based or functional assay. Also on record: unit not given beside the values.
Experiment [4] deals with envelope of HIV-1 strain BaL (HIV-1 strain BaL). Put plainly: cell-based or functional assay. Also on record: unit not given beside the values.
For experiment [5], the target named is envelope of HIV-1 clinically isolated strain KMT. Briefly: cell-based or functional assay. Also on record: unit not given beside the values.
Experiment [6] has as its target envelope of HIV-1 clinically isolated strain MIS. Briefly: cell-based or functional assay. Also on record: unit not given beside the values.
Experiment [7] concerns the target envelope of HIV-1 strain SF162 (HIV-1 strain SF162, UniProt P19550 32-847). Put plainly: cell-based or functional assay. Also on record: unit not given beside the values.
Experiment [8] concerns the target T1, envelope of HIV-2 strain ROD (HIV-2 strain ROD, UniProt P04577 20-858).
T1 sequence: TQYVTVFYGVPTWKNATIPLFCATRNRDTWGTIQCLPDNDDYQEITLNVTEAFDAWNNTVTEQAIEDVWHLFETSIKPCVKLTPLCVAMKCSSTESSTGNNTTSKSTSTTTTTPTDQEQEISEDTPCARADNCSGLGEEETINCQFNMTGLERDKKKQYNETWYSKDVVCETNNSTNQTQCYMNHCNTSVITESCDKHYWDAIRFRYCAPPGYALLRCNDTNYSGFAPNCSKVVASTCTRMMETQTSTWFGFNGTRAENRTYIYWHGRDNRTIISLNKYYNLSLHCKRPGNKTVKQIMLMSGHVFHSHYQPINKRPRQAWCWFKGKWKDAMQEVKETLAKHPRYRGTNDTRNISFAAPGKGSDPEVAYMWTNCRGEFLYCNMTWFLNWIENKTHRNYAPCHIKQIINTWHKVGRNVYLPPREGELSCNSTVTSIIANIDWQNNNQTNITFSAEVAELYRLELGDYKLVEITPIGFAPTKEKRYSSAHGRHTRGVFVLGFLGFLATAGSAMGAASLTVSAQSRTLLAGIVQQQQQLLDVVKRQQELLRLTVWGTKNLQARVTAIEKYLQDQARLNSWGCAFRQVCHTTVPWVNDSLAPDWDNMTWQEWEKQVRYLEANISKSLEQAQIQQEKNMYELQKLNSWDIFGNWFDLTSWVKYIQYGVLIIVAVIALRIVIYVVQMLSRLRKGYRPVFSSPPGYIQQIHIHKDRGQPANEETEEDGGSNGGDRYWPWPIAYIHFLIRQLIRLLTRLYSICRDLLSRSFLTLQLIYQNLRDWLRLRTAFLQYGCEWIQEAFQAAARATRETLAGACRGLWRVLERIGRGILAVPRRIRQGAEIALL
Put plainly: cell-based or functional assay. Also on record: unit not given beside the values.

The target in experiment [9] is envelope of HIV-1 strain YU2 (HIV-1 strain YU2, UniProt P35961 32-843). Put plainly: cell-based or functional assay. Also on record: unit not given beside the values.
Experiment [10] has as its target envelope of HIV-1 clinically isolated strain YKI. Briefly: cell-based or functional assay. Also on record: unit not given beside the values.
Experiment [11] deals with envelope of HIV-1 clinically isolated strain TR43. Put plainly: cell-based or functional assay. Also on record: unit not given beside the values.
Experiment [12] addresses envelope of HIV-1 clinically isolated strain kKGO. Briefly: cell-based or functional assay. Also on record: unit not given beside the values.
The target in experiment [13] is envelope of HIV-1 strain JRFLGPER
Put plainly: cell-based or functional assay. Also on record: unit not given beside the values.

In experiment [14] the target is envelope of HIV-1 strain 89.6 (HIV-1 strain 89.6, UniProt Q73372 32-853). Put plainly: cell-based or functional assay. Also on record: unit not given beside the values.
In experiment [15] the target is envelope of HIV-1 clinically isolated strain YIS. Put plainly: cell-based or functional assay. Also on record: unit not given beside the values.
In experiment [16] the target is envelope of HIV-1 strain IIIB (HIV-1 strain IIIB). Put plainly: cell-based or functional assay. Also on record: unit not given beside the values.
The target of experiment [17] is envelope of HIV-2 strain EHO (HIV-2 strain EHO). Briefly: cell-based or functional assay. Also on record: unit not given beside the values.
In experiment [18] the target is envelope of standard panel pseudotyped virus SVPB14 (HIV-1 subtype B). Briefly: cell-based or functional assay.
Experiment [19] concerns the target envelope of standard panel pseudotyped virus SVPB5 (HIV-1 subtype B). Put plainly: cell-based or functional assay.
Experiment [20] concerns the target envelope of standard panel pseudotyped virus SVPB6 (HIV-1 subtype B). Put plainly: cell-based or functional assay.
Experiment [21] concerns the target envelope of standard panel pseudotyped virus SVPB15 (HIV-1 subtype B). Put plainly: cell-based or functional assay.
The target in experiment [22] is envelope of standard panel pseudotyped virus SVPB8 (HIV-1 subtype B). Put plainly: cell-based or functional assay.
Experiment [23] concerns the target envelope of standard panel pseudotyped virus SVPB12 (HIV-1 subtype B). Briefly: cell-based or functional assay.
Experiment [24] has as its target envelope of standard panel pseudotyped virus SVPB13 (HIV-1 subtype B). Put plainly: cell-based or functional assay.
The target in experiment [25] is envelope of standard panel pseudotyped virus SVPB11 (HIV-1 subtype B). Put plainly: cell-based or functional assay.
Experiment [26] concerns the target envelope of standard panel pseudotyped virus SVPB16 (HIV-1 subtype B). Put plainly: cell-based or functional assay.
Experiment [27] has as its target envelope of standard panel pseudotyped virus SVPB18 (HIV-1 subtype B). Put plainly: cell-based or functional assay.
The target of experiment [28] is envelope of standard panel pseudotyped virus SVPB17 (HIV-1 subtype B). Put plainly: cell-based or functional assay.
The target in experiment [29] is T2, monomeric gp120 (gp120-SF2; Austral Biologicals) (HIV-1 strain SF2, UniProt P03378 32-509).
T2 construct: domain: gp120; also called gp120 monomer
Briefly: gp120-capture ELISA with or without 0.5 µg/ml sCD4. For orientation: ELISA stands for enzyme-linked immunosorbent assay.

Experiment [30] concerns the target T2, monomeric gp120 (gp120-SF2; Austral …). Briefly: gp120-capture ELISA, B cell culture supernatant.
The target in experiment [31] is T3, V3 peptide NNT20 (HIV-1 strain JR-FL).
T3 construct: Coated on the plate at 5 µg/ml
T3 peptide: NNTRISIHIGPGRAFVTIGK
Put plainly: V3-peptide ELISA, NNT20 coated at 5 µg/ml.

B1: 0.5 δ(3D6) (antibody, IgG1, V domains shown)
VH: EVQLVESAAEVKKPGASVKVSCKASGYTFTSYGISWVRQAPGQGLQWMGWISAYNGNTKFAQEFKGRVTMTTDTSATTAYMELRSLRSDDTAVYYCARRNYYDSGSYYIRDGDYSMDVWGQGTLVTVSS
VL: not shown
notes: also called 3D6(0.5 δ); 0.5 d(3D6)
With B1, the “IC50, neutralizing activity (MTT assay)” value is above 50 in [1]; 0.42 in [2]; 0.15 in experiment [3]; above 50 in experiment [4]; 24 in experiment [5]; 0.15 in experiment [6]. The “IC50, neutralizing activity (MTT assay)” value in experiment [7] is 2.3; in experiment [8] it was above 50; in experiment [9], above 50; in [10], 2.4; in experiment [11], above 50; in [12], above 50. The “IC50, neutralizing activity (MTT assay)” value was 1.2 in experiment [13]; above 50 in [14]; 2.3 in experiment [15]; 2 in [16]; above 50 in [17]. Moreover, the “IC50 in TZM-bl cells” value is above 50 µg/mL in experiment [18]; 1.2 µg/mL in [19]; above 50 µg/mL in experiment [20]; above 50 µg/mL in experiment [21]; above 50 µg/mL in [22]; above 50 µg/mL in [23]. The “IC50 in TZM-bl cells” value in experiment [24], in experiment [25], in experiment [26], in [27] and in [28] was above 50 µg/mL each time. The binding result in experiment [29] is recorded as “binds”.

B2: 42F9 (antibody, IgG1, V domains shown)
VH: EVQLVESGGGVVRPGGSLRLSCAASGFAFGEYGMSWVRQAPGKGLEWVSGINWNGGSTGYADSVQGRFTTSRDNAKNSLYLQMNSLRAEDTALYYCARDENYDILTGNYYYGMDVWGQGTTVTVSS
VL: DIQLTQSPSSLSASVGDRVTITCRASQSISNYLNWYQQKPGKAPKLLIYAASSLQSGVPSRFSGSGSGTDFTLTISSLQPEDFATFYCQQSHSIPYTFGQGTKLEIKR
For B2, the binding result in experiment [30] is listed as “binds”. Moreover, the “IC50 in TZM-bl cells” value in [18] is above 50 µg/mL; in experiment [19] it was 4.5 µg/mL; in experiment [20], above 50 µg/mL; in experiment [21], above 50 µg/mL; in experiment [22], above 50 µg/mL; in experiment [23] it was above 50 µg/mL. Also, the “IC50 in TZM-bl cells” value in [24] is above 50 µg/mL; in experiment [25], above 50 µg/mL; in experiment [26] it was 21 µg/mL; in experiment [27], above 50 µg/mL; in experiment [28] it was above 50 µg/mL.

B3: 0.5 γ(1C10) (antibody, IgG1, V domains shown)
VH: EVQLVESGGGLIQPGGSLRLSCAASGFTVSSSSMSWVRQAPEKGLEWVSVVYSGGNTYNADSVKGRFSISRDNSKNTVYLQMNSLRADDTAVYYCARDLGGGDRSSDYWGQGTLVTVSS
VL: DIQLTQSPSSLSASVGDRVTITCRASESINTYLNWYQQRPGKAPKLLIYAASTLQTGVPSRFSGSGSGTLFTLTISSLQPEDLATYYCQQSFSTLPYTLGRGTKVEIKG
notes: Human monoclonal from EBV-immortalised B cells of a long-term nonprogressor; also called 0.5γ(IC10); 1C10(0.5 γ)
In the case of B3, the binding result in experiment [30] and in experiment [31] was “binds” each time. Also, the “IC50, neutralizing activity (MTT assay)” value in experiment [1] was 2.9; in experiment [2], 0.02; in experiment [3], 0.53; in [4], 0.25; in experiment [5], 24; in [6], above 50. For the same molecule, the “IC50, neutralizing activity (MTT assay)” value in experiment [7] is 0.053; in [8], above 50; in experiment [9], 14; in [10] it was 0.01; in experiment [11], above 50; in [12], 0.32. Also, the “IC50, neutralizing activity (MTT assay)” value was 26 in [13]; 0.12 in experiment [14]; 0.59 in experiment [15]; above 50 in experiment [16]; above 50 in experiment [17]. Also, the “IC50 in TZM-bl cells” value in [18] was 10.5 µg/mL; in experiment [19], 0.23 µg/mL; in [20] it was 38 µg/mL; in experiment [21] it was above 150 µg/mL; in experiment [22] it was above 150 µg/mL; in experiment [23], > 50 µg/mL and 82 µg/mL. In addition, the “IC50 in TZM-bl cells” value in experiment [24] was > 50 µg/mL and 110 µg/mL; in experiment [25], 35 µg/mL; in experiment [26] it was 6.1 µg/mL; in [27], 1.1 µg/mL; in [28], 4.5 µg/mL.
